This test deals with T1, UL31 1-306 R229L_(UL31) (HSV-1, UniProt P10215 1-306, R229L).
T1 construct: also called SUP_(UL31); UL31 chain of NEC220-SUP_(UL31)
T1 sequence: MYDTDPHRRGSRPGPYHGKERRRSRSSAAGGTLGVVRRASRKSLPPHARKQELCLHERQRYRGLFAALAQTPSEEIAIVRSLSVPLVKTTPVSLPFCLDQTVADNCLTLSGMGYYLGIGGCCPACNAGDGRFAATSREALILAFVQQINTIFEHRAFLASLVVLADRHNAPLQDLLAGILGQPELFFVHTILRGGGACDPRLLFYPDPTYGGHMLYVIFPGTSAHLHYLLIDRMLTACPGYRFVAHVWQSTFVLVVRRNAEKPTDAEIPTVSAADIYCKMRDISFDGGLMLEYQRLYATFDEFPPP
Description: cryo-EM structure; cryoET with sub-tomographic averaging of membrane-bound coats; 1 mg/mL NEC with 400 and 800 nm LUVs (POPC:POPS:POPA = 3:1:1), 30 min on ice. The following applies: both partners purified.

B1: UL34 1-220 D35A_(UL34)/E37A_(UL34) (domain or fragment)
chain: MAGLGKPYTGHPGDAFEGLVQRIRLIVPSTLRGGAGAAGPYSPSSLPSRCAFQFHGHDGSDESFPIEYVLRLMNDWAEVPCNPYLRIQNTGVSVLFQGFFHRPHNAPGGAITPERTNVILGSTETTGLSLGDLDTIKGRLGLDARPMMASMWISCFVRMPRVQLAFRFMGPEDAGRTRRILCRAAEQAITRRRRTRRSREAYGAEAGLGVAGTGFRARGD
notes: also called DN_(UL34); UL34 chain of NEC220-DN_(UL34)/SUP_(UL31); not shown: GST, N-terminal, cleaved
For the molecule B1, the binding result is “binds”.

(Values after publication PMC10817169, “The universal suppressor mutation restores membrane budding defects in the HSV-1 nuclear egress complex by stabilizing the oligomeric lattice” (PLOS Pathogens, 2024).)
